Entries after “also recorded” stand apart in the source; their conditions may differ.
Key:
[1] = target: T1, mouse endoglin (Mus musculus, UniProt Q63961); assay: ELISA binding of M1043 antibody to mouse endoglin; conditions: 10 μg/ml to 0.014 μg/ml; plate coated with mouse endoglin 1 μg/ml
T1 construct: purchased R&D Systems 1320-EN-025
T1 sequence (Q63961 27-581 limits assumed): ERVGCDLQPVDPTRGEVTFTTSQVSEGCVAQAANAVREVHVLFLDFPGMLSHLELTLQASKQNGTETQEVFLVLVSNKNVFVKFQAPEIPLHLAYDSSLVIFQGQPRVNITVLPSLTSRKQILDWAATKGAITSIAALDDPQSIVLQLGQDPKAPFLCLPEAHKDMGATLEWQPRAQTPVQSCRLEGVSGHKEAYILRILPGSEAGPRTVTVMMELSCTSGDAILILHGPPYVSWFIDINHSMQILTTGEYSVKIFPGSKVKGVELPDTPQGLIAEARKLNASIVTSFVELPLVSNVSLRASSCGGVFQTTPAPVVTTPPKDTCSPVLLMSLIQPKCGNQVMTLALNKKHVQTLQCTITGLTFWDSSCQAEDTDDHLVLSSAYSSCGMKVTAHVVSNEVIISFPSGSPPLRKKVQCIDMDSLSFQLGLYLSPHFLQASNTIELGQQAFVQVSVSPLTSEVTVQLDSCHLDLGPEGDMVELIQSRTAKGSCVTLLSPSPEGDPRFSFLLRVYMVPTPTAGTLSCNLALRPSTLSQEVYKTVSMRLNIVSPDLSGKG
Procedure: An ELISA was established to determine the binding of M1043 antibody to mouse endoglin as follows: Nunc Immuno MaxiSorp 96 well flat bottom plates (Fisher, Cat. No. DIS-971-030J) were coated with mouse endoglin (R&D Systems, Cat. No. 1320-EN-025) at 1 μg/ml in PBS overnight at 4° C. The following day the plate was washed three times with PBST before blocking with PBST/3% Marvel at room temperature for 1 hour. After blocking, the plate was washed three times with PBST, and varying concentrations (10 μg/ml to 0.014 μg/ml in three-fold serial dilutions) of either M1043 or an irrelevant rat IgG1 (Affymetrix, Cat. No. 14-4301) in PBST/3% Marvel were added to the plate and incubated for 1 hour at room temperature. Binding of the antibodies was detected via anti-rat IgG peroxidase (Sigma, Cat. No. A9037) and TMB single solution substrate (Invitrogen, Cat. No. 00-2023). The reaction was stopped by adding 3 M HCl and OD450 nm values were measured on a Dynex MRX TCII plate reader.

[2] = test system: NASH mice; assay: Murine model of non-alcoholic steatohepatitis (NASH; STZ and high fat diet); format: in vivo, mouse
How it was run: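 NASH induced in mice by single postnatal subcutaneous STZ plus high-fat diet from 4 weeks of age; groups of 10 dosed from day 63 with antibodies i.v. at 10 mg/kg twice weekly or telmisartan orally 10 mg/kg daily to day 84. At 12 weeks, H&E liver sections scored for NAFLD Activity Score (0–8); Bonferroni test, P<0.05.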

[3] = liver gene expression, mean ± SD, Normal-Vehicle 1.0

B1: M1043: rat IgG1 antibody that binds mouse endoglin and competitively inhibits mouse BMP binding; VH SEQ ID NO: 124, VL SEQ ID NO: 125 (antibody, V domains shown)
VH: QVQLQQSGAELVKPGSSVKISCKASGYTFTSYDMHWIKQQPGNGLEWIGWIYPGNGNTKYNQKFNGKATLTADKSSSTAYMQLSSLTSEDSAVYFCARGKFGVGDYWGQGVMVTVSS
VL: DTVLTQSPALAVSPGERVSISCRASEGVNSYMHWYQQKPGQQPKLLIYIASNLASGVPARFSGSGSGTDFTLTIDPVEADDTATYFCQQSWNDPYTFGAGTKLELKR
Binding to mouse endoglin (ELISA) [1]: binds specifically to mouse endoglin
Liver triglyceride contents compared with the NASH-Vehicle group ([2]; Bonferroni, P<0.05): significant decreases
Mean liver weight compared with the NASH-Vehicle group ([2]; Bonferroni, P<0.05): tended to decrease
Mean liver-to-body weight ratio compared with the NASH-Vehicle group ([2]; Bonferroni, P<0.05): significant decreases
NAS compared with the NASH-Vehicle group ([2]; Bonferroni, P<0.05): significant decreases in NAS; also recorded: significant reductions of NAS
Serum alanine aminotransferase (ALT) levels compared with the NASH-Vehicle group ([2]; Bonferroni, P<0.05): tended to decrease
Serum aspartate aminotransferase (AST) levels compared with the NASH-Vehicle group ([2]; Bonferroni, P<0.05): tended to decrease
F4/80-positive signals and cells in liver compared with the NASH-Vehicle group ([2]; F4/80 immunostaining, macrophage marker): Lower F4/80-positive signals and positive cells
Alpha-SMA mRNA expression [2, 3]: 1.7 ± 0.4
MCP-1 mRNA expression [2, 3]: 3.2 ± 2.4
TIMP-1 mRNA expression [2, 3]: 7.6 ± 3.3
TNF-α mRNA expression [2, 3]: 4.4 ± 1.9
Liver triglyceride ([2]; mean ± SD): 22.4 ± 5.4 mg/g liver
Serum ALP ([2]; mean ± SD): 358 ± 129 U/L
Serum ALT ([2]; mean ± SD): 24 ± 4 U/L
Serum AST ([2]; mean ± SD): 76 ± 24 U/L
Sirius red-positive area ([2]; mean ± SD, liver sections): 0.86 ± 0.30%
NAS (NAFLD Activity score) ([2]; mean ± SD, range 0-8, 10 mg/kg): 4.1 ± 1.0
Lobular inflammation score 0, number of mice ([2]; score 0 = No Foci): 1
Hepatocyte ballooning score 0, number of mice ([2]; score 0 = None): 2
Steatosis score 1, number of mice ([2]; score 1 = 5-33%): 6
Lobular inflammation score 1, number of mice ([2]; score 1 = <2 foci/200x): 1
Hepatocyte ballooning score 1, number of mice ([2]; score 1 = Few balloon cells): 2
Lobular inflammation score 2, number of mice ([2]; score 2 = 2-4 foci/200x): 6
Steatosis score 2, number of mice ([2]; score 2 = >33-66%): 2
Hepatocyte ballooning score 2, number of mice ([2]; score 2 = Many cells/prominent ballooning): 4
Inflammatory cell infiltration in the liver ([2]; summary of lobular inflammation score and F4/80 immunostaining): reductions in inflammatory cell infiltration in the liver
